In patent US7572764B2, “Uses of chemically-modified cholinesterases for detoxification of organophosporus compounds” (priority 2001, dated 2009):

Assay: Clearance experiments in mice, pharmacokinetic profiles
Conditions: mice; for MRT: mean residence time, noncompartmental model
Procedure: The pharmacokinetic profiles of non-modified and various preparations of PEG-modified AChE were resolved. Clearance experiments in mice (3 to 6 ICR male mice per enzyme sample) and analysis of pharmacokinetic profiles were carried out as described essentially previously [Kronman, C., et al. (1992), Gene 121, 295-304]. The study was approved by the local ethical committee on animal experiments. Mice were injected with the various rHuAChE preparations (40 μg/mouse in 0.2 ml PBS). Residual AChE activity in blood samples was measured and all values were corrected for background hydrolytic activity in the blood (using samples withdrawn 1 hour before performing the experiment). AChE activity values in samples removed immediately after injection were assigned a value of 100% and used for calculation of residual activity. […] This model enables determination of the parameters A and B which represent the fractions of the material removed from the circulation in the first-fast and second-slow elimination phases respectively, and T1/2α and T1/2β which represent the circulatory half-life values of the enzyme in the fast and slow phases. The pharmacokinetic parameters MRT (mean residence time, which reflects the average length of time the administered molecules are retained in the organism) and CL (clearance, which represents the proportionality factor relating the rate of substance elimination to its plasma concentration (CL=dose/area under the concentration-time curve), were independently obtained by analyzing the clearance data according to a noncompartmental pharmacokinetic model using the WinNonlin computer program. The comparative results are set forth in Table 3 below.

| Molecule | pharmacokinetic behavior after modification by PEG versus non-modified enzyme | also measured |
| --- | --- | --- |
| partially desialylated BChE (protein, UniProt P06276 29-602, looked up, partially desialylated) Cholinesterase: EDDIIIATKNGKVRGMNLTVFGGTVTAFLGIPYAQPPLGRLRFKKPQSLTKWSDIWNATKYANSCCQNIDQSFPGFHGSEMWNPNTDLSEDCLYLNVWIPAPKPKNATVLIWIYGGGFQTGTSSLHVYDGKFLARVERVIVVSMNYRVGALGFLALPGNPEAPGNMGLFDQQLALQWVQKNIAAFGGNPKSVTLFGESAGAASVSLHLLSPGSHSLFTRAILQSGSFNAPWAVTSLYEARNRTLNLAKLTGCSRENETEIIKCLRNKDPQEILLNEAFVVPYGTPLSVNFGPTVDGDFLTDMPDILLELGQFKKTQILVGVNKDEGTAFLVYGAPGFSKDNNSIITRKEFQEGLKIFFPGVSEFGKESILFHYTDWVDDQRPENYREALGDVVGDYNFICPALEFTKKFSEWGNNAFFYYFEHRSSKLPWPEWMGVMHGYEIEFVFGLPLERRDNYTKAEEILSRSIVKRWANFAKYGNPNETQNNSTSWPVFKSTEQKYLTLNTESTRIMTKLRAQQCRFWTSFFPKVLEMTGNIDEAEWEWKAGFHRWNNYMMDWKNQFNDYTSKKESCVGL | – | MRT: 2.67 h |
| non-treated serum-derived BChE (protein, UniProt P06276 29-602, looked up) Cholinesterase: EDDIIIATKNGKVRGMNLTVFGGTVTAFLGIPYAQPPLGRLRFKKPQSLTKWSDIWNATKYANSCCQNIDQSFPGFHGSEMWNPNTDLSEDCLYLNVWIPAPKPKNATVLIWIYGGGFQTGTSSLHVYDGKFLARVERVIVVSMNYRVGALGFLALPGNPEAPGNMGLFDQQLALQWVQKNIAAFGGNPKSVTLFGESAGAASVSLHLLSPGSHSLFTRAILQSGSFNAPWAVTSLYEARNRTLNLAKLTGCSRENETEIIKCLRNKDPQEILLNEAFVVPYGTPLSVNFGPTVDGDFLTDMPDILLELGQFKKTQILVGVNKDEGTAFLVYGAPGFSKDNNSIITRKEFQEGLKIFFPGVSEFGKESILFHYTDWVDDQRPENYREALGDVVGDYNFICPALEFTKKFSEWGNNAFFYYFEHRSSKLPWPEWMGVMHGYEIEFVFGLPLERRDNYTKAEEILSRSIVKRWANFAKYGNPNETQNNSTSWPVFKSTEQKYLTLNTESTRIMTKLRAQQCRFWTSFFPKVLEMTGNIDEAEWEWKAGFHRWNNYMMDWKNQFNDYTSKKESCVGL | – | circulatory residence time (in words): resides in the circulation for extended periods of time |
| FBS-AChE (protein, UniProt P23795 31-613, looked up) Acetylcholinesterase: EGPEDPELLVMVRGGRLRGLRLMAPRGPVSAFLGIPFAEPPVGPRRFLPPEPKRPWPGVLNATAFQSVCYQYVDTLYPGFEGTEMWNPNRELSEDCLYLNVWTPYPRPSSPTPVLVWIYGGGFYSGASSLDVYDGRFLTQAEGTVLVSMNYRVGAFGFLALPGSREAPGNVGLLDQRLALQWVQENVAAFGGDPTSVTLFGESAGAASVGMHLLSPPSRGLFHRAVLQSGAPNGPWATVGVGEARRRATLLARLVGCPPGGAGGNDTELVACLRARPAQDLVDHEWRVLPQESVFRFSFVPVVDGDFLSDTPEALINAGDFHGLQVLVGVVKDEGSYFLVYGAPGFSKDNESLISRAQFLAGVRVGVPQASDLAAEAVVLHYTDWLHPEDPARLREALSDVVGDHNVVCPVAQLAGRLAAQGARVYAYIFEHRASTLSWPLWMGVPHGYEIEFIFGLPLEPSLNYTIEERTFAQRLMRYWANFARTGDPNDPRDPKAPQWPPYTAGAQQYVSLNLRPLEVRRGLRAQACAFWNRFLPKLLSATDTLDEAERQWKAEFHRWSSYMVHWKNQFDHYSKQDRCSDL | – | MRT: 22.33 h |
| PEG modified FBS-AChE (conjugate, UniProt P23795 31-613, looked up, PEG) Acetylcholinesterase: EGPEDPELLVMVRGGRLRGLRLMAPRGPVSAFLGIPFAEPPVGPRRFLPPEPKRPWPGVLNATAFQSVCYQYVDTLYPGFEGTEMWNPNRELSEDCLYLNVWTPYPRPSSPTPVLVWIYGGGFYSGASSLDVYDGRFLTQAEGTVLVSMNYRVGAFGFLALPGSREAPGNVGLLDQRLALQWVQENVAAFGGDPTSVTLFGESAGAASVGMHLLSPPSRGLFHRAVLQSGAPNGPWATVGVGEARRRATLLARLVGCPPGGAGGNDTELVACLRARPAQDLVDHEWRVLPQESVFRFSFVPVVDGDFLSDTPEALINAGDFHGLQVLVGVVKDEGSYFLVYGAPGFSKDNESLISRAQFLAGVRVGVPQASDLAAEAVVLHYTDWLHPEDPARLREALSDVVGDHNVVCPVAQLAGRLAAQGARVYAYIFEHRASTLSWPLWMGVPHGYEIEFIFGLPLEPSLNYTIEERTFAQRLMRYWANFARTGDPNDPRDPKAPQWPPYTAGAQQYVSLNLRPLEVRRGLRAQACAFWNRFLPKLLSATDTLDEAERQWKAEFHRWSSYMVHWKNQFDHYSKQDRCSDL | significantly improved | – |
| PEG-modified sialidase-treated AChE (conjugate, UniProt P22303 32-614, looked up, PEG; sialidase-treated) Acetylcholinesterase: EGREDAELLVTVRGGRLRGIRLKTPGGPVSAFLGIPFAEPPMGPRRFLPPEPKQPWSGVVDATTFQSVCYQYVDTLYPGFEGTEMWNPNRELSEDCLYLNVWTPYPRPTSPTPVLVWIYGGGFYSGASSLDVYDGRFLVQAERTVLVSMNYRVGAFGFLALPGSREAPGNVGLLDQRLALQWVQENVAAFGGDPTSVTLFGESAGAASVGMHLLSPPSRGLFHRAVLQSGAPNGPWATVGMGEARRRATQLAHLVGCPPGGTGGNDTELVACLRTRPAQVLVNHEWHVLPQESVFRFSFVPVVDGDFLSDTPEALINAGDFHGLQVLVGVVKDEGSYFLVYGAPGFSKDNESLISRAEFLAGVRVGVPQVSDLAAEAVVLHYTDWLHPEDPARLREALSDVVGDHNVVCPVAQLAGRLAAQGARVYAYVFEHRASTLSWPLWMGVPHGYEIEFIFGIPLDPSRNYTAEEKIFAQRLMRYWANFARTGDPNEPRDPKAPQWPPYTAGAQQYVSLDLRPLEVRRGLRAQACAFWNRFLPKLLSATDTLDEAERQWKAEFHRWSSYMVHWKNQFDHYSKQDRCSDL | significantly improved | – |
| PEG-modified mono-glycosylated AChE (conjugate, UniProt P22303 32-614, looked up, PEG; mono-glycosylated) Acetylcholinesterase: EGREDAELLVTVRGGRLRGIRLKTPGGPVSAFLGIPFAEPPMGPRRFLPPEPKQPWSGVVDATTFQSVCYQYVDTLYPGFEGTEMWNPNRELSEDCLYLNVWTPYPRPTSPTPVLVWIYGGGFYSGASSLDVYDGRFLVQAERTVLVSMNYRVGAFGFLALPGSREAPGNVGLLDQRLALQWVQENVAAFGGDPTSVTLFGESAGAASVGMHLLSPPSRGLFHRAVLQSGAPNGPWATVGMGEARRRATQLAHLVGCPPGGTGGNDTELVACLRTRPAQVLVNHEWHVLPQESVFRFSFVPVVDGDFLSDTPEALINAGDFHGLQVLVGVVKDEGSYFLVYGAPGFSKDNESLISRAEFLAGVRVGVPQVSDLAAEAVVLHYTDWLHPEDPARLREALSDVVGDHNVVCPVAQLAGRLAAQGARVYAYVFEHRASTLSWPLWMGVPHGYEIEFIFGIPLDPSRNYTAEEKIFAQRLMRYWANFARTGDPNEPRDPKAPQWPPYTAGAQQYVSLDLRPLEVRRGLRAQACAFWNRFLPKLLSATDTLDEAERQWKAEFHRWSSYMVHWKNQFDHYSKQDRCSDL | significantly improved | – |
| PEG-modified non-glycosylated AChE (conjugate, UniProt P22303 32-614, looked up, PEG; non-glycosylated) Acetylcholinesterase: EGREDAELLVTVRGGRLRGIRLKTPGGPVSAFLGIPFAEPPMGPRRFLPPEPKQPWSGVVDATTFQSVCYQYVDTLYPGFEGTEMWNPNRELSEDCLYLNVWTPYPRPTSPTPVLVWIYGGGFYSGASSLDVYDGRFLVQAERTVLVSMNYRVGAFGFLALPGSREAPGNVGLLDQRLALQWVQENVAAFGGDPTSVTLFGESAGAASVGMHLLSPPSRGLFHRAVLQSGAPNGPWATVGMGEARRRATQLAHLVGCPPGGTGGNDTELVACLRTRPAQVLVNHEWHVLPQESVFRFSFVPVVDGDFLSDTPEALINAGDFHGLQVLVGVVKDEGSYFLVYGAPGFSKDNESLISRAEFLAGVRVGVPQVSDLAAEAVVLHYTDWLHPEDPARLREALSDVVGDHNVVCPVAQLAGRLAAQGARVYAYVFEHRASTLSWPLWMGVPHGYEIEFIFGIPLDPSRNYTAEEKIFAQRLMRYWANFARTGDPNEPRDPKAPQWPPYTAGAQQYVSLDLRPLEVRRGLRAQACAFWNRFLPKLLSATDTLDEAERQWKAEFHRWSSYMVHWKNQFDHYSKQDRCSDL | significantly improved | – |
| PEG-modified fully sialylated AChE (conjugate, UniProt P22303 32-614, looked up, PEG; fully sialylated) Acetylcholinesterase: EGREDAELLVTVRGGRLRGIRLKTPGGPVSAFLGIPFAEPPMGPRRFLPPEPKQPWSGVVDATTFQSVCYQYVDTLYPGFEGTEMWNPNRELSEDCLYLNVWTPYPRPTSPTPVLVWIYGGGFYSGASSLDVYDGRFLVQAERTVLVSMNYRVGAFGFLALPGSREAPGNVGLLDQRLALQWVQENVAAFGGDPTSVTLFGESAGAASVGMHLLSPPSRGLFHRAVLQSGAPNGPWATVGMGEARRRATQLAHLVGCPPGGTGGNDTELVACLRTRPAQVLVNHEWHVLPQESVFRFSFVPVVDGDFLSDTPEALINAGDFHGLQVLVGVVKDEGSYFLVYGAPGFSKDNESLISRAEFLAGVRVGVPQVSDLAAEAVVLHYTDWLHPEDPARLREALSDVVGDHNVVCPVAQLAGRLAAQGARVYAYVFEHRASTLSWPLWMGVPHGYEIEFIFGIPLDPSRNYTAEEKIFAQRLMRYWANFARTGDPNEPRDPKAPQWPPYTAGAQQYVSLDLRPLEVRRGLRAQACAFWNRFLPKLLSATDTLDEAERQWKAEFHRWSSYMVHWKNQFDHYSKQDRCSDL | significantly improved | – |
